The values below come from patent US20200024360A1 (Janssen / Centocor, published 2020).

Assay [1] concerns the target T1, cynomolgus CD3ε on primary cynomolgus CD4+ T cells (cynomolgus monkey, UniProt Q95LI5 22-198).
T1 construct: whole, on cells
The assay is described as follows: flow cytometry on primary cynomolgus CD4+ T cells (CD3e), anti-human IgG (H+L) Alexa Fluor 647. Here is the method:
(§1) The resulting panel of anti-CD3 antibodies was tested for binding against cell-surface CD3ε on primary human T cells. To do this, binding of antibodies from expression supernatants was visualized using a polyclonal anti-human secondary antibody and analyzed by flow cytometry. Briefly, binding of anti-CD3 antibodies to cell-surface CD3E was assessed by flow cytometry using primary Human T lymphocytes purified by negative selection (Biological Specialty, Colmar, USA). Expression supernatants or purified antibodies were normalized to 10 μg/ml in media or FACS buffer (BD BioSciences), respectively. 2×10⁵ cells were aliquoted into wells of a 96 well round-bottomed plate (CoStar) for labeling. Antibodies in expression supernatant were added to cells and incubated for 45 min at 4° C. Following centrifugation at 1300 rpm for 3 min and removal of supernatant, 50 μL of anti-human IgG (H+L) Alexa Fluor 647 secondary antibody (Life technologies Inc.) was incubated with the cells at a final concentration of 10 μg/mL for 30 min at 4° C. away from direct light. Following washing and resuspension in 30 μL FACs buffer (BD BioSciences). Sample collection was performed on an Intellicyt HTFC system using ForeCyt software. Viable single cells were gated prior to analysis of binding using the green or red fixable live/dead dyes (Life Technologies Inc.) and forward/side scatter area and height parameters, respectively. Graphs were generated in GraphPad Prism version 5 using mean fluorescence intensity values.
Binding analysis of the anti-CD3 hits to primary cynomolgus CD4⁺ T cells was then tested in order to assess the retention of cross-reactivity. Purified CD4⁺ T cells from the peripheral blood of cynomolgus monkeys (Zen Bio, Triangle Research Park, USA were used). Assay protocols were similar to those described above.

The target of assay [2] is T2, human CD3ε on primary human T cells (human, UniProt P07766 23-207).
T2 construct: whole, on cells; Part of the TCR-CD3 complex on the cells; also called cell-surface CD3ε; CD3E
T2 sequence (P07766 23-207): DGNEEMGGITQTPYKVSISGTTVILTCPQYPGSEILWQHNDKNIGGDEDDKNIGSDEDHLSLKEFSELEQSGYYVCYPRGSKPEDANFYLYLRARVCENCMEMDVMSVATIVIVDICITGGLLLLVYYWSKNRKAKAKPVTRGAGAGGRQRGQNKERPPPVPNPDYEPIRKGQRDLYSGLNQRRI
Description: flow cytometry on primary human T cells (cell-surface CD3e), anti-human IgG (H+L) Alexa Fluor 647; one intermediate concentration of the titration is shown. How it is done: as §1
On the technique in general: Flow cytometry measures light scatter and fluorescence of single cells or particles in a stream.

Assay [3] has as its target T3, human PSMA (prostate specific membrane antigen), full length (human, UniProt Q04609 1-750).
T3 construct: On LNCaP or C4-2B cells (endogenous) or transduced HEK293F cells; also called FOLH1_HUMAN; hPSMA
The assay is described as follows: FACS, whole cell binding, LNCaP. Here is the method: (§2) PSMA×CD3 bispecific antibodies were tested for binding to PSMA positive cell lines LNCAP, human PSMA-HEK, Chimpanzee-PSMA-HEK and Cynomolgous monkey PSMA-HEK. To assess the binding capabilities of the PSMA bispecific antibodies, the cell-binding assay was utilized (described previously). Briefly, PSMA expressing tumor cells are bound by bispecific antibodies at known concentrations and the bound antibody is detected by an anti-human kappa light chain PE conjugated detection reagent (Invitrogen). The Mean Fluorescents Intensity (MFI) is the measure of bound bispecific antibody. The MFI is converted to a relative EC₅₀. EC₅₀ is a commonly used dose-response curve, where the half maximal effective concentration or the EC₅₀ point is defined as the inflection point of the curve. EC₅₀ s were determined by measuring cell bound bispecific and known concentrations. […] The dose response curves were then diluted down to that of background or no bispecific binding. The inflection point of this curve reflects the EC₅₀ point. The calculated EC₅₀ is determined by taking the ug/ml amount of bispecific antibody at the EC₅₀ point and converting it to a molarity value based on the MW of the bispecific antibody. Bispecific antibodies were normalized for protein concentration and then incubated with the same number of cells expressing either human or cyno PSMA. The MFI at each concentration was collected by flow cytometry and plotted as a function of concentration. Data was transformed via log 10 and then plotted. Nonlinear regression of binding curves was done to determine EC₅₀ s. These relative values were used for ranking PSMA binding to target cells.

Assay [4] deals with T4, Cynomolgous monkey PSMA, full length (Macaca fascicularis, UniProt Q04609 1-750 (human entry)).
T4 construct: On transfected HEK293F cells; also called cyno PSMA; EHH56646.1
T4 chain: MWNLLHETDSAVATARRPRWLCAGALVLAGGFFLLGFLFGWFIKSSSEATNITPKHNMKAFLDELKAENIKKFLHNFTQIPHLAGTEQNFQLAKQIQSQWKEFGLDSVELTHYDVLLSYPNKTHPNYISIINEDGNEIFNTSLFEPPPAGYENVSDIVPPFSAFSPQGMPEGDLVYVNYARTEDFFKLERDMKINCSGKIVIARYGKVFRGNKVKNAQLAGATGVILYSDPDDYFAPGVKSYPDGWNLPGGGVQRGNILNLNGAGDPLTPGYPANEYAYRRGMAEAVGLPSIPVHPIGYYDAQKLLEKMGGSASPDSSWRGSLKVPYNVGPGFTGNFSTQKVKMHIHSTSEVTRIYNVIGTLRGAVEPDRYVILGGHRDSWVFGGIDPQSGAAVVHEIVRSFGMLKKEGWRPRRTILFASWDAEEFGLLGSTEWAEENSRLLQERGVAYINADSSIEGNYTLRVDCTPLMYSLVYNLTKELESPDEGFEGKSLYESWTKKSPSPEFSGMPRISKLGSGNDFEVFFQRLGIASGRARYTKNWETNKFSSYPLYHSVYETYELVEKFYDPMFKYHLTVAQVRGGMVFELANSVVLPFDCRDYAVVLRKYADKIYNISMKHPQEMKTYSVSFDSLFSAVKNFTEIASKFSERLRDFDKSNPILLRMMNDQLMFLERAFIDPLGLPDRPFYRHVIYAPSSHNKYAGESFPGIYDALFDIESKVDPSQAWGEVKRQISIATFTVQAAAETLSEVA
The assay is described as follows: FACS, whole cell binding, cyno PSMA HEK. How it is done:
as §2

For assay [5], the target named is T5, chimpanzee PSMA, full length (Pan troglodytes, UniProt Q04609 1-750 (human entry)).
T5 construct: On transfected HEK293F cells; also called chimp PSMA; H2Q3K5_PANTR
T5 chain: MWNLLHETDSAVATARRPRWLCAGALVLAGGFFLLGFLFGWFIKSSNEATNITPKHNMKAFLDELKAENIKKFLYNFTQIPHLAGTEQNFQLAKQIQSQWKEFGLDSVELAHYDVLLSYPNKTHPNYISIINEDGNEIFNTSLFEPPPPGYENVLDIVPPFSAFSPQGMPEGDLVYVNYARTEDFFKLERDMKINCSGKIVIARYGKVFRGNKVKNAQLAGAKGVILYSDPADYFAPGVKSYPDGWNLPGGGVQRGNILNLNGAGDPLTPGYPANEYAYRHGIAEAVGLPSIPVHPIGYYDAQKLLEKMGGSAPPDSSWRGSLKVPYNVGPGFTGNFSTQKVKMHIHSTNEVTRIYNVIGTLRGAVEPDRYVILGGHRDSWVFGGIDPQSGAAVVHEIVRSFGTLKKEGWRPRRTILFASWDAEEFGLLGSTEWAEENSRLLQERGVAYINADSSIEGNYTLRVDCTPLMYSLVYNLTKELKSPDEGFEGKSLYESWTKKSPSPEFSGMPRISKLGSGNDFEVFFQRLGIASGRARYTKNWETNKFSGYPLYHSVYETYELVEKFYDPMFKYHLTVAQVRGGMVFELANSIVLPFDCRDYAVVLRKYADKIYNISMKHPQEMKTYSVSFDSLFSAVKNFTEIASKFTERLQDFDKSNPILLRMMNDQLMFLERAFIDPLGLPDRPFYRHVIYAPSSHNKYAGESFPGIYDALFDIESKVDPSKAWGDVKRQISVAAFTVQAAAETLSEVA
The assay is described as follows: FACS, whole cell binding, chimp PSMA HEK. Here is the method: as §2

Assay [6] addresses T3, human PSMA (prostate specific membrane …). Description: FACS, whole cell binding, LNCaP; calculated EC50. How it is done: as §2
For assay [7], the target named is T4, Cynomolgous monkey PSMA, full length. Description: FACS, whole cell binding, cyno PSMA HEK; calculated EC50. How it is done:
as §2

In assay [8] the target is T5, chimpanzee PSMA, full length. The assay is described as follows: FACS, whole cell binding, chimp PSMA HEK; calculated EC50. Here is the method:
as §2

Broadly, the EC50 is the concentration giving half of the maximal effect.

T1 sequence (Q95LI5 22-198): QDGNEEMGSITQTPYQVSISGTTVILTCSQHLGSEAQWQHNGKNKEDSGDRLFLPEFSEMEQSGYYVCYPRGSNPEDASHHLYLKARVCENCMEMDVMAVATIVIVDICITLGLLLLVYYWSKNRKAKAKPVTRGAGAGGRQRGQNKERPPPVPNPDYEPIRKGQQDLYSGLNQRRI

B1: CD3B158 (antibody, V domains shown)
VH: EVQLVESGGGLVQPGGSLKLSCAASGFTFNTYAMNWVRQASGKGLEWVGRIRSKYNGYATYYAASVKGRFTISRDDSKNTAYLQMNSLKTEDTAVYYCTRHGNFGNSYVSWFAYWGQGTLVTVSS
VL: QTVVTQEPSLTVSPGGTVTLTCRSSTGAVTTSNYANWVQQKPGQAPRGLIGGTNKRAPGTPARFSGSLLGGKAALTLSGVQPEDEAEYYCALWYSNLWVFGGGTKLTVL
notes: also called CD3H144/CD3L66
Turning to B1, the binding result in assay [1] and in assay [2] was “binds” in each case.

B2: CD3B147 (antibody, V domains shown)
VH: EVQLLESGGGLVQPGGSLRLSCAASGFTFNTYAMNWVRQAPGKGLEWVARIRSKYNNYATYYADSVKGRFTISRDNSKNTLYLQMNSLRAEDTAVYYCAKHGNFGNSYVSWFAYWGQGTLVTVSS
VL: QAVVTQEPSLTVSPGGTVTLTCRSSTGAVTTSNYANWVQQKPGQAPRGLIGGTNKRAPGTPARFSGSLLGGKAALTLSGAQPEDEAEYYCALWYSNLWVFGGGTKLTVL
notes: also called CD3H142/CD3L63
B2: the binding result in assay [1] and in assay [2] was “binds” in each case.

B3: CD3B151 (antibody, V domains shown)
VH: EVQLLESGGGLVQPGGSLRLSCAASGFTFNTYAMNWVRQAPGKGLEWVARIRSKYNNYATYYADSVKGRFTISRDNSKNTLYLQMNSLRAEDTAVYYCVKHGNFGNSYVSWFAYWGQGTLVTVSS
VL: QAVVTQEPSLTVSPGGTVTLTCRSSTGAVTTSNYANWVQQKPGQAPRGLIGGTNKRAPGTPARFSGSLLGGKAALTLSGAQPEDEAEYYCALWYSNLWVFGGGTKLTVL
notes: also called CD3H143/CD3L63
On to B3, for which the binding result in assay [1] and in assay [2] was “binds” each time.

B4: CD3B155 (antibody, V domains shown)
VH: EVQLVESGGGLVQPGGSLKLSCAASGFTFNTYAMNWVRQASGKGLEWVGRIRSKYNGYATYYAASVKGRFTISRDDSKNTAYLQMNSLKTEDTAVYYCTRHGNFGNSYVSWFAYWGQGTLVTVSS
VL: QAVVTQEPSLTVSPGGTVTLTCRSSTGAVTTSNYANWVQQKPGQAPRGLIGGTNKRAPGTPARFSGSLLGGKAALTLSGAQPEDEAEYYCALWYSNLWVFGGGTKLTVL
notes: also called CD3H144/CD3L63
In the case of B4, the binding result in assay [1] and in assay [2] was “binds” in each case.

B5: CD3B154 (antibody, V domains shown)
VH: EVQLLESGGGLVQPGGSLRLSCAASGFTFNTYAMNWVRQAPGKGLEWVARIRSKYNNYATYYADSVKGRFTISRDNSKNTLYLQMNSLRAEDTAVYYCVKHGNFGNSYVSWFAYWGQGTLVTVSS
VL: QTVVTQEPSLTVSPGGTVTLTCRSSTGAVTTSNYANWVQQKPGQAPRGLIGGTNKRAPGTPARFSGSLLGGKAALTLSGVQPEDEAEYYCALWYSNLWVFGGGTKLTVL
notes: also called CD3H143/CD3L66
Consider B5, for which the binding result in assay [1] and in assay [2] was “binds” each time.

B6: CD3B156 (antibody, V domains shown)
VH: EVQLVESGGGLVQPGGSLKLSCAASGFTFNTYAMNWVRQASGKGLEWVGRIRSKYNGYATYYAASVKGRFTISRDDSKNTAYLQMNSLKTEDTAVYYCTRHGNFGNSYVSWFAYWGQGTLVTVSS
VL: QSVLTQPPSVSAAPGQKVTISCRSSTGAVTTSNYANWVQQLPGTAPKGLIGGTNKRAPGIPDRFSGSKSGTSATLGITGLQTGDEADYYCALWYSNLWVFGGGTKLTVL
notes: also called CD3H144/CD3L64
B6: the binding result in assay [1] and in assay [2] was “binds” throughout.

B7: PS3B26 (bispecific antibody, human IgG4 S228P, kappa, lambda, F234A L235A)
heavy 1: not shown
light 1: not shown
heavy 2: EVQLVESGGGLVQPGGSLRLSCAASGFTFNTYAMNWVRQAPGKGLEWVARIRSKYNNYATYYAASVKGRFTISRDDSKNSLYLQMNSLKTEDTAVYYCARHGNFGNSYVSWFAYWGQGTLVTVSSASTKGPSVFPLAPCSRSTSESTAALGCLVKDYFPEPVTVSWNSGALTSGVHTFPAVLQSSGLYSLSSVVTVPSSSLGTKTYTCNVDHKPSNTKVDKRVESKYGPPCPPCPAPEAAGGPSVFLFPPKPKDTLMISRTPEVTCVVVDVSQEDPEVQFNWYVDGVEVHNAKTKPREEQFNSTYRVVSVLTVLHQDWLNGKEYKCKVSNKGLPSSIEKTISKAKGQPREPQVYTLPPSQEEMTKNQVSLTCLVKGFYPSDIAVEWESNGQPENNYKTTPPVLDSDGSFLLYSKLTVDKSRWQEGNVFSCSVMHEALHNHYTQKSLSLSLGK
light 2: QTVVTQEPSLTVSPGGTVTLTCRSSTGAVTTSNYANWVQQKPGQAPRGLIGGTNKRAPGTPARFSGSLLGGKAALTLSGVQPEDEAEYYCALWYSNLWVFGGGTKLTVLGQPKAAPSVTLFPPSSEELQANKATLVCLISDFYPGAVTVAWKADSSPVKAGVETTTPSKQSNNKYAASSYLSLTPEQWKSHRSYSCQVTHEGSTVEKTVAPTECS
notes: IgG4 PAA; PSMA arm chains first, then CD3 arm (F405L, R409K); also called PSMB126 x CD3B219
As for B7, the EC50 in assay [3] was 0.0715 µg/mL; in assay [4], 0.371 µg/mL; in assay [5] it was 0.05 µg/mL; in assay [6] it was 0.5 nM; in assay [7], 2.6 nM; in assay [8] it was 0.34 nM.
